Results taken from patent US20030144182A1 (IMMUNEX, published 2003).

B1: Trimeric human CD40-L (ligand)
chain: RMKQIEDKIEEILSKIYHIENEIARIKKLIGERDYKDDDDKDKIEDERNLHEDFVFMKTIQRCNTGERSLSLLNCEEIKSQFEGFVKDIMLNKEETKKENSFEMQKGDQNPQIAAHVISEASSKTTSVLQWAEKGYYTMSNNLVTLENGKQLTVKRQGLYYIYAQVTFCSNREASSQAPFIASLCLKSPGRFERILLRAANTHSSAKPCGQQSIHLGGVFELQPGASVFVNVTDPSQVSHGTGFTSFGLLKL
notes: also called trimeric CD40-L; CD40-L trimer
B2: Dimeric murine CD40-L (Fc fusion, not shown: a dimerising Fc or GST)
chain (part 1 of 2): DYKDDDDK
chain (part 2 of 2): GGGGSGGGGSGGGGSSSHRRLDKVEEEVNLHEDFVFIKKLKRCNKGEGSLSLLNCEEMRRQFEDLVKDITLNKEEKKENSFEMQRGDEDPQIAAHVVSEANSNAASVLQWAKKGYYTMKSNLVMLENGKQLTVKREGLYYVYTQVTFCSNREPSSQRPFIVGLWLKPSSGSERILLKAANTHSSSQLCEQQSVHLGGVFELQAGASVFVNVTEASQVIHRVGFSSFGLLKL
notes: also called Murine Dimer

Assays:
[1] = molecular target: T1, CD40/Fc fusion protein (human, UniProt P25942 21-193); assay: biosensor (BIAcore), CD40/Fc captured on goat anti-human IgG1 Fc; equilibrium binding curve, left panel
T1 construct: extracellular domain; also called s CD40/Fc; C40/Fc
Experimental: (§1) This example illustrates the binding affinities of several different CD40-L constructs. Affinity experiments were conducted by biospecific interaction analysis (BIA) using a biosensor, an instrument that combines a biological recognition mechanism with a sensing device or transducer. An exemplary biosensor is BIAcore™, from Pharmacia Biosensor AB (Uppsala, Sweden; see Faigerstam L. G., Techniques in Protein Chemistry II, ed. J. J. Villafranca, Acad. Press, NY, 1991). BIAcore™ uses the optical phenomenon surface plasmon resonance (Kretschmann and Raether, Z. Naturforschung, Teil. A 23:2135, 1968) to monitor the interaction of two biological molecules.
(§2) The biosensor chips were coated with goat anti-human IgG₁ Fc, which was used to bind CD40/Fc (prepared as described in Example 1) to the chip. The different constructs of CD40-L were then added at increasing concentrations; the chip was regenerated between the different constructs by the addition of sodium hydroxide. Two separate experiments were performed. […] The resultant data were analyzed to determine the affinity and association rate constants of the different CD40-L constructs. […]

[2] = molecular target: T1, CD40/Fc fusion protein; assay: BIAcore, CD40/Fc captured by goat anti-human IgG1 Fc; first experiment
Experimental: as §1, §2

T1 sequence (P25942 other isoform, or with tags, fused parts or gaps limits assumed): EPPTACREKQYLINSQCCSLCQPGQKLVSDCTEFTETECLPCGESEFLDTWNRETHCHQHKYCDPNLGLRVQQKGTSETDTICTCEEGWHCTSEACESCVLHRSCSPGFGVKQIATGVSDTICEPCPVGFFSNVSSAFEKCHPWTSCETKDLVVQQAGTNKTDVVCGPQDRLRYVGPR

Binder | EC50 (read off the curve) [1] [nM] | Site 1 (mol/mol CD40/Fc) [2] [mol/mol CD40/Fc] | Site2 (mol/mol CD40/Fc) [2] [mol/mol CD40/Fc]
B1 | ~10 | – | –
B2 | – | 0.05 | 0.14
